Reference: the DeepSol protein solubility set

Assay: soluble on expression in E. coli; label from the status in PepcDB or PDB records

| Sequence | soluble on expression in E. coli |
| --- | --- |
| MDNRIPSALTTSVKSPKTPSGIPFLIRERDVIKAILEFLEIRGLHITQLSLEREAGVINGAFSDDLLFLRQLILDGQWDNALDFVEPLKPVNEFDFGAFRYNITKYKFFELLCVKLEPGPLHDNDFAVEELVECLKDLEHICPTPEDYRHLCALLTLPKLSDHEDFKNWNPSSARVECFNKVNQLCGHLLPPTGKEKDRGDDANSSNDRLTGLITKGRFYEGCVDYCQAQAIGDKRGIDAGPMPSEMLTFRPKLGSADLSLVCWLEMVGKEQFSMPFKQKQLELKVDHIRKPKLEAPWTETIMATPIKPGGQFPHNLVPSSKLKFAEKMSQSMTMSMLPPADLTTSMFPSVPRGHPMSQSTAAGFCLGTAITEADAMAQSLLIDEMMESSQLARTSRPDTLRGVGMMMTGDTIVPVQPAQVMINAPSQLSSQMMSMSMAPQVMAPIAPMAQNMINYDFAPVRRQLDEMARRSLPPSRLPTVPELGSPAVNSHHEENLMTQSRLFQQFSAAKQINEMVLPRGVGGVVGAAGAVGGAHVLPLQSQERLFQQRVAAAPGFQNGAQIPNQSMVPQGVPMSHQIRPQSIAGLPQAQPQVPQQLQRPVSAPTGMGVQFVPVCRYEDSQAIRATGFHPSGRYFALGTNSKQLHICLYPDTKRTQSRPMAYEQTKNAEIAVTRPKQHRGSVYCLSFNPNGDLLATGSNDKTIRLMAFNEDSCRIGAEMELTCHDGTVRDLIFIESSINRSTILVSGGAGNCHLNVTDCNTGQLIQSMKGHTAPILGLYTWSQAGNQFVSCSQDKTIRFWDLRQQTAVNVISPGSNKSHNASPVTSVCVDPNGKLLVSGHEDASVALFDIGGNRILQTFRPHGDEVRTVRFSNAAYYLLTASYDKRVVISDMRGDLMAPLMYLPVAEHSDKVVQCRWHPHDFSFLSTSADRSAVLWSLPNR | not soluble |
| MDPGPWNECVPVRMPDDPQIHMVSNTRQAVELLTKRWPVSHGQAYQAAIDICMAVLERESPAYVARVAFVAAAKEAQVNIVS | not soluble |
| MDQLFYNGPPDYVEIEDRAITTEPGASIQAAPGAIWMEALPAIEGIPAGLEYLAYLDTVMVHQVKEVLEILTGWESKNKYAIRNKNGQQCYYAFEESNAWERQCCGSQRGFTMHIVDNFNKNVLIVKRELRCCADSFCGCLLGLQNICTIESLSTGLLGTVLQGYGCTNSFYNILDKDGNLIFLVDGQGCCTSCCCEDKDFTIKTPDSSVPIGSITKKWGGLLREAFTDADTFAVTFPIDLDVKLKAILLGATFLIDFVEFENNN | not soluble |
| MDQVVVFQKMFEQVRKEQNFSWFYSELKHHRIAHYIYYLATDNIRIITHDDTVLLLRGTRNLLKVSTTKNPAKIKEAALLHICGKSTFREYCSTLAGAGVFRWVTDVNHNKRSYYAIDNTLLYIEDVENNKPLILEHHHHHH | soluble |
| MDRRSQILTIAGHLFSQRGYHATSMRELARHLNLQGGSLYAHIQSKEELLLEVVRQAAERFQKVLEELPSGDPVTRMKALVKGHLRVIAEELPRATVFFHEWKHLSPPLLEEAKALRRRYEEGVQAVVEEGVRAGVFRVENVRLATLFVLSALNWTYQWYRPDGPLSLEALAEAYAELVLKALGVAASPEGERREEGGEDGEA | soluble |
| MDRTLYQKQMLDLVKDSKLATKLENSIFKWTNDYMETNITPPFMFENFYQDKFSDIIKHLNIKNNPYLLEAIKTGKIKPENIAFLKPEEIYPEKFEAILNKRKLEKAIKDNQATTDAFKCPRCKKRKAKIDQKQIRAGDEPMTTFVTCVECGNVQKF | not soluble |
| MDRTTGKPLVGIEHLRQSIIDILSTRIGTRVMRRDYGSRIAELIDAPVNSSFSIALYAAVAEALDKWEPRFKLKKIDFKMLGTGQVSLSFEGMYLPSGKPITMEGLLIQ | not soluble |
| MDRVIAAQVYLRICELGSLSAAARALGMSRPMVSRYLEQMESWAGARLIHRSTRRLTLTPAGEKVLLKTRGLTRIADEIAGERQRADPSGTLRVACAHFTAMQLISPLLPDFLARYPLLRLELDINNHPVSLIGERIDVAIRITDNPEAGAIARRLGVCRSLLCAAPGWMRQHGPLTTPDDLQRHNCLLYSHFASQHWQFSDAQGREASVAVNGNLSAGISSLLLEAAVAGCGIAMLPELEARGAIASGTLEVVLPEWTPKALSVYGIYLSRDYQPDGLPLFLDALQRRLGEETGHG | not soluble |
| MDRVLSRADKERLLELLKLPRQLWGDFGRMQQAYKQQSLLLHPDKGGSHALMQELNSLWGTFKTEVYNLRMNLGGTGFQ | soluble |
| MDSGVEASGYPPVGRAKILLERAVNPIPSPRRELEQYTTPADIAVRIAVDALLRGLLEGALAADLAAGTCRLGLALLLYGASRVAAVEADGRLAGLCLGAAEKLGLGGRIFFVASRVSRRRGPLAAGSVDLVATNPPFGVWRRGADWEVLEYALRLKPRAVYAIVKSGNMGFHAAKAAGLGYSTLLISREHFPIPASMPGHRSRVRRVSVDVVLFTRGG | soluble |
| MDSLMRVFSHRSPPPSFGFACDVGAHPSSTAQNLPMTYGSVREMIDDFSIVFGVPKYRTSKPKKVTRKFSFTRLLQPIDNLVTCPACSNIHPSDTICDACYAKVHQLTSEIKKKMMQYNPYVGEKQDKEVYVKFRGEPDAPAAVVKGKRVLEIEKERPTWFKKLTLKE | not soluble |
| MDSRSLSVHDGAMQTLTVPDSGLAPLLPGQRLARGVCRHLRSHDFVSVVELVPAPGLRVDVMALGPKGEIWVVECKSSRADYQSDRKWQGYLDWCDRFFFAVDEAFPVDLLPEGTGLMLADGYDAEILRIGPEGRLAPARRKAVIQGFARHAALRLQGLRDPGAFPG | not soluble |
| MDSSEVVKVKQASIPAPGSILSQPNTEQSPAIVLPFQFEATTFGTAETAAQVSLQTADPITKLTAPYRHAQIVECKAILTPTDLAVSNPLTVYLAWVPANSPATPTQILRVYGGQSFVLGGAISAAKTIEVPLNLDSVNRMLKDSVTYTDTPKLLAYSRAPTNPSKIPTASIQISGRIRLSKPMLIAN | soluble |
| MDTALYLLPVTLGDTPIESVLPSYNKEIIQGIKHFIVEDVRSARRFLKKVDREIDIDSLTFYPLNKHTSPEDISGYLKPLAGGLSMGVISEAGCPAVADPGADVVAIAQRKNLKVVPLVGPSSIILSVMGSGFSGQSFAFHGYLPIEPGERAKKIKALEQRVYAEHQTQLFIETPYRNNKMVEDILHNCRPQTRLCIAANITCEGEYIRTKTIKEWQGKVPDLTKIPCIFLLYQLEHHHHHH | not soluble |
| MDTLGLVESRSIAAGVNLADGMVKVAQVELVRAGTICSGRYFICLGGDRQAVQTAVSHAEQSGSALAGSYVISGVSPQVLAVLKKSVQPGTPGALGVVECRTVSAGIAAADAAVKRSGISLLRLVTGQGINGKSYFVFSGDVASVQEAADAAKTALGRHLIESVVIARPDASVVRALTSGVR | not soluble |
| MDTMGRHVISELWGCDFDKLNDIDFIEKTFVDAALKSGAEIREVAFHKFAPQGVSGVVIISESHLTIHTFPEHGYASIDVYTCGHLDPTIAADYIAEMLGAQTRETIELPRGMRPIEVKKAQAL | soluble |
| MDTPENVLQMLEAHMQSYKGNDPLGEWERYIQWVEENFPENKEYLITLLEHLMKEFLDKKKYHNDPRFISYCLKFAEYNSDLHQFFEFLYNHGIGTLSSPLYIAWAGHLEAQGELQHASAVLQRGIQNQAEPREFLQQQYRLFQTRLTETHLPAQARTSEPLHNVQVLNQMITSKSNPGNNMACISKNQGSELSGVISSACDKESNMERRVITISKSEYSVHSSLASKVDVEQVVMYCKEKLIRGESEFSFEELRAQKYNQRRKHEQWVNEDRHYMKRKEANAFEEQLLKQKMDELHKKLHQVVETSHEDLPASQERSEVNPARMGPSVGSQQELRAPCLPVTYQQTPVNMEKNPREAPPVVPPLANAISAALVSPATSQSIAPPVPLKAQTVTDSMFAVASKDAGCVNKSTHEFKPQSGAEIKEGCETHKVANTSSFHTTPNTSLGMVQATPSKVQPSPTVHTKEALGFIMNMFQAPTLPDISDDKDEWQSLDQNEDAFEAQFQKNVRSSGAWGVNKIISSLSSAFHVFEDGNKENYGLPQPKNKPTGARTFGERSVSRLPSKPKEEVPHAEEFLDDSTVWGIRCNKTLAPSPKSPGDFTSAAQLASTPFHKLPVESVHILEDKENVVAKQCTQATLDSCEENMVVPSRDGKFSPIQEKSPKQALSSHMYSASLLRLSQPAAGGVLTCEAELGVEACRLTDTDAAIAEDPPDAIAGLQAEWMQMSSLGTVDAPNFIVGNPWDDKLIFKLLSGLSKPVSSYPNTFEWQCKLPAIKPKTEFQLGSKLVYVHHLLGEGAFAQVYEATQGDLNDAKNKQKFVLKVQKPANPWEFYIGTQLMERLKPSMQHMFMKFYSAHLFQNGSVLVGELYSYGTLLNAINLYKNTPEKVMPQGLVISFAMRMLYMIEQVHDCEIIHGDIKPDNFILGNGFLEQDDEDDLSAGLALIDLGQSIDMKLFPKGTIFTAKCETSGFQCVEMLSNKPWNYQIDYFGVAATVYCMLFGTYMKVKNEGGECKPEGLFRRLPHLDMWNEFFHVMLNIPDCHHLPSLDLLRQKLKKVFQQHYTNKIRALRNRLIVLLLECKRSRK | soluble |
| MDTSTNLDIGAQLIVEECPSTYSLTGMPDIKIEHPLDPNSEEGSAQGVAMGMKFILPNRFDMNVCSRFVKSLNEEDSKNIQDQVNSDLEVASVLFKAECNIHTSPSPGIQVRHVYTPSTTKHFSPIKQSTTLTNKHRGNEVSTTPLLANSLSVHQLAAQGEMLYLATRIEQENVINHTDEEGFTPLMWAAAHGQIAVVEFLLQNGADPQLLGKGRESALSLACSKGYTDIVKMLLDCGVDVNEYDWNGGTPLLYAVHGNHVKCVKMLLESGADPTIETDSGYNSMDLAVALGYRSVQQVIESHLLKLLQNIKE | soluble |
| MDTVVMSWWDFGHLFAVAADRPVTFDGGSQNTPRAYWIGKALTTSNETLSRGILTMLSTSGDLAYETLDNYTDDSGKTAEILTATLGLPREEARAVMTGRYGLSDKEADSVLRYSHPAKPKPFVLVLSSDMLGKAPWWTYFGTWDFKKKTGSRLEHHHHHH | not soluble |
| MDVAGEKQQRKGEAIARIEAEKNAYTVAQLADEYFERMIAGRWKHPNIVRSRIEKDIKPAIGSLKVEDVKPRHIDDVLKAVMKRGAPSIANDTLRWLKRMFNYAIKRHIIEYNPAAAFLEHHHHHH | not soluble |
| MDVASALEGNWEFRVDHKNIKIFSSKIRGSQVLGFKGEAVFEASLRKLISLFHDFGNYGKWVHQLSEMEVLHKSDELDYVVRQVLNTPWPIPKREMIVRTALHASEEGALALTMTGIPDYVPLKPDFHRVREARGGWILMPVDGGKVHVTFVMHLDPGSDIPPALSNAALFEVPFYSLLKMRDLAQNPSYKPAWPSVVDNHVTIIEDVPDKHLEHHHHHH | soluble |
| MDVVFPKMPHHQTVTNVRVPSSRGSAISRAHSEHRRSIDRSEPRHHHRHHVHSETPELPYTRGISKTPSVREYNVKREGQRSPSRSHRSERSPSEVRIPVTTTHTRPIAKRQSPEELDYGRFADKSQQNRFPGDHQAREEDLPYTRGISKTPSNQDSRSERTPCSDIHIPYNNPEKERAYQQSERSSYRSHKSVTPSEKSLPRNSETPELHYTRGISKTPSDRVEKSRYLSRGVSTPHTPSEVHIPYNNPEKERAYQQSHRPSSPKRRPSGRTNSPNKSSSSSKARPSAAPLEEIVHIKERYERDETIRRFFPTTTAV | not soluble |
| MDYQQLANQIKQWAIELGFEKVGICDVDLSEHEPALQAWLDAGYHGEMDWMARHGMMRARPAELLPGTLRVISARINYLPPQAQFASNLSDPNQAYISRYALGRDYHKLVRNQLKKLGEKIEQEVGKLGYRPFVDSAPILERPLAQKAGLGWTGKHSLILDKENGSWFFLGELLVDIPLPVDEPSENQCGKCTACITSCPTNAIVAEGVVDARRCVSYLTIEYSGVIPLEFRRAMGNRIYGCDDCQLVCPWNRFAPLTQQSDFHRRQSLNNADLVVLFEWDEATFLKNMEGSAIRRIGHQQWRRNLIIAMGNAPYSPRIIDTLQRHLGQSELLDEHIHWALEEQTQKTATPRQHARLIRIIEKGLPRDA | not soluble |
